Assay results published in PMC12246787.
Each block holds one substance with its values, some of them ahead of it.

Molecular target: FcγRIIIa receptor immobilised on the TSKgel FcR-IIIA-NPR column (UniProt P08637)
Assay: FcγRIIIa affinity chromatography; FcγRIIIa immobilised on a TSKgel FcR-IIIA-NPR column (4.6 x 75 mm); antibody injected (20 µL); 0.05 M sodium citrate, 0.150 M NaCl, 10 min at pH 6.5, then linear gradient to pH 4.5 in 40 min; 0.375 mL/min; 20°C; UV 280 nm; eluting peaks collected and their glycoforms assigned by HILIC-MS

UniProt P08637, sequence (P08637 17-208): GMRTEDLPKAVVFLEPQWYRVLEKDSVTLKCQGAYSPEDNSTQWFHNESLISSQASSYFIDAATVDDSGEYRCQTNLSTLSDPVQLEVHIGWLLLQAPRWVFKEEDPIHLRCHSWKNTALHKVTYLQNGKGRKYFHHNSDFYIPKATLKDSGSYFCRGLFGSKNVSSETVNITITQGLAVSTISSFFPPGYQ

RT (min) on the FcγRIIIa column, peak #1 (G0F 74%, G1F 25%): 22.9 min | RT (min) on the FcγRIIIa column, peak #2 (G0F 43%, G1F 43%, G2F 14%): 28.2 min | RT (min) on the FcγRIIIa column, peak #3 (G1F 72%, G2F 28%): 33.2 min
Substance: commercial rituximab (MabThera) produced in CHO cells (antibody)

RT (min) on the FcγRIIIa column, peak #1 (G0 100%): 30.5 min
Substance: rituximab produced in glycoengineered ΔXF N. benthamiana plants (antibody)

RT (min) on the FcγRIIIa column, peak #1 (Man8 14%, Man9 86%): 24.9 min
Substance: rituximab produced in wild-type N. benthamiana agroinfiltrated in the presence of the kifunensine mannosidase I inhibitor (antibody)

RT (min) on the FcγRIIIa column, peak #1 (G0 100%): 30.3 min
Substance: rituximab produced in wild-type N. benthamiana, G0 glycoform (antibody)
